Here are results for one molecule from patent publication US20220169722A1 (WUXI BIOLOGICS IRELAND, published 2022).

The target in assay [1] is T1, mouse LAG-3 on transfected cells (mouse, UniProt Q61790 24-521).
T1 construct: whole, on cells; Flp-In-CHO cells transfected with mouse LAG-3; also called cell surface mouse LAG-3; murine LAG-3
T1 sequence (looked up): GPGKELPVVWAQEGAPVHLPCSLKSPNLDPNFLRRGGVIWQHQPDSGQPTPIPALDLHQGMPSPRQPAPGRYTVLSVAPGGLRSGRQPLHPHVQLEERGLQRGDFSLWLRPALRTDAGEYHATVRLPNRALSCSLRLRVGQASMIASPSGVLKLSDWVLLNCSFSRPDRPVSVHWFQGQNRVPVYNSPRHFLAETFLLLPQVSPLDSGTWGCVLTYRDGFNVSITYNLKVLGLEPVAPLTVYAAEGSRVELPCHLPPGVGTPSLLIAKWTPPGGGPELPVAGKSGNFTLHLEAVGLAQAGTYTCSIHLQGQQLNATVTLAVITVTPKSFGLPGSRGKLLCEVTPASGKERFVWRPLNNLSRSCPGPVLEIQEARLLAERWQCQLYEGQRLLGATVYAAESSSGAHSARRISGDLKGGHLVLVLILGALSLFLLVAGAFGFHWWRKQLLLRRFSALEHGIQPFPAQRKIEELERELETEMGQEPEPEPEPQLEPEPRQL
Briefly: FACS on mouse LAG-3 transfected cells. How it is done: Similarly, cross-reactivity to cynomolgus or murine LAG-3 was tested by FACS with cyno or murine LAG-3 transfected cell lines.

The target of assay [2] is T2, mouse LAG-3 protein (SPR analyte) (mouse, UniProt Q61790 24-442).
T2 construct: extracellular domain
T2 sequence (looked up): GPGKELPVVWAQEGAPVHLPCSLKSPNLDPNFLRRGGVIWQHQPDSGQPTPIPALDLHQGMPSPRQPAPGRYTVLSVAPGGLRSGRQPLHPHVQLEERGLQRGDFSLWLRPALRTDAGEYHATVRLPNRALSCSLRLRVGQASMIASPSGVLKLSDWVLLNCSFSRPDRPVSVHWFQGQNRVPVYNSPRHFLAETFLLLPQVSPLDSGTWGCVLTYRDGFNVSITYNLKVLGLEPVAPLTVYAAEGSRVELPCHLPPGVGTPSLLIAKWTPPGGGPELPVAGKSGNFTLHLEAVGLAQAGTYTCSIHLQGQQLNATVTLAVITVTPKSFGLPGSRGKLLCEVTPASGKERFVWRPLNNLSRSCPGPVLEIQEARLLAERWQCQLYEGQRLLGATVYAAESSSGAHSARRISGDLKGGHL
In words: SPR Biacore 8K, Ab as ligand, LAG-3 as analyte.

For assay [3], the target named is T3, human LAG-3 protein (SPR analyte) (human, UniProt P18627 23-450).
T3 construct: extracellular domain
T3 sequence (looked up): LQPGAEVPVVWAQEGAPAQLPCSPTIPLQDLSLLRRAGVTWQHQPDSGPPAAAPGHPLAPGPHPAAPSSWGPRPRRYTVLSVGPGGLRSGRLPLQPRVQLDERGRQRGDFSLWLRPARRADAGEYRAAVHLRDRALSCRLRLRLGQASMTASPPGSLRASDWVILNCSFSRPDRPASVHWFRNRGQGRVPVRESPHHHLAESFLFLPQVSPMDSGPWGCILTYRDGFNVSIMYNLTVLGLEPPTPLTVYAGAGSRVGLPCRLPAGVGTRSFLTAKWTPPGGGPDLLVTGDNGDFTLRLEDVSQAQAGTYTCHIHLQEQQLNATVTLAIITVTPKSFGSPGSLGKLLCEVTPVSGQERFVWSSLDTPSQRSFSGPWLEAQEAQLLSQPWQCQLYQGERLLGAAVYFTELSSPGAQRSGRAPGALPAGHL
In words: SPR Biacore 8K, Ab as ligand, LAG-3 as analyte.

B1: W3396-R2-1 (Fc fusion)
VHH: QVQLVESGGGVVQPGGSLRLSCAASGLTLSQYTMGWFRQAPGKERELVAAIHWTSSVTDYADSVYGRFTISRDDSKNTGYLQMNSLRAEDTAVYYCAATWYYTHRGSFDYWGQGTLVTVSS
As usually defined, the EC50 is the concentration giving half of the maximal effect. A higher EC50 goes with lower potency in that assay. For orientation: Kd means a measure of binding affinity in units of concentration. By koff is commonly meant the rate constant with which the complex falls apart. Higher therefore signals a short-lived complex. A word on the kon: it is a measure of how fast the partners come together. A higher kon goes with fast association. B1 had an EC50 in assay [1] of 100 pM. Besides, in assay [2], binding was characterised by a dissociation constant (Kd) of 2.27 pM, the koff was 2.31e-06 s⁻¹ and the kon amounted to 1.02e+06 M⁻¹ s⁻¹. Also, in assay [3], the Kd was 183 pM, the off-rate (koff) was 2.73e-05 s⁻¹ and the kon came out at 149000 M⁻¹ s⁻¹.
